Measured values as given in patent publication US20240116997A1 (BRIGHT PEAK THERAPEUTICS, published 2024).
Positions count from the first letter of the chain named. Names and notes keep the numbering of the source.

T1: IL-18 receptor (IL-18Rαβ) on cells (UniProt Q13478 19-541; O95256 20-599, limits assumed)
T1 sequence (looked up) 1: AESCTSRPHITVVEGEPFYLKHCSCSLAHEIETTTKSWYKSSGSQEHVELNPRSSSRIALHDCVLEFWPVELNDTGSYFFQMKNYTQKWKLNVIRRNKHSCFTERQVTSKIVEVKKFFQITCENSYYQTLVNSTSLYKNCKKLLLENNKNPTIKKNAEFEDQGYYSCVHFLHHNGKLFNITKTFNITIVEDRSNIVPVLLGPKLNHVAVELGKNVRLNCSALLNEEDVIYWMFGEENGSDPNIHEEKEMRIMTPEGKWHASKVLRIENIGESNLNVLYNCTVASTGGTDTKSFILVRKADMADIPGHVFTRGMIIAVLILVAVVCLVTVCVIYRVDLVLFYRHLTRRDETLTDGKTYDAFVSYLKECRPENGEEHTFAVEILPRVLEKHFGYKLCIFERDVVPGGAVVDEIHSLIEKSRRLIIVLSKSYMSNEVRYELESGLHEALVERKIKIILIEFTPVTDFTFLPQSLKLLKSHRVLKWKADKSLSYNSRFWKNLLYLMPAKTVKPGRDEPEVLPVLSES
T1 sequence (looked up) 2: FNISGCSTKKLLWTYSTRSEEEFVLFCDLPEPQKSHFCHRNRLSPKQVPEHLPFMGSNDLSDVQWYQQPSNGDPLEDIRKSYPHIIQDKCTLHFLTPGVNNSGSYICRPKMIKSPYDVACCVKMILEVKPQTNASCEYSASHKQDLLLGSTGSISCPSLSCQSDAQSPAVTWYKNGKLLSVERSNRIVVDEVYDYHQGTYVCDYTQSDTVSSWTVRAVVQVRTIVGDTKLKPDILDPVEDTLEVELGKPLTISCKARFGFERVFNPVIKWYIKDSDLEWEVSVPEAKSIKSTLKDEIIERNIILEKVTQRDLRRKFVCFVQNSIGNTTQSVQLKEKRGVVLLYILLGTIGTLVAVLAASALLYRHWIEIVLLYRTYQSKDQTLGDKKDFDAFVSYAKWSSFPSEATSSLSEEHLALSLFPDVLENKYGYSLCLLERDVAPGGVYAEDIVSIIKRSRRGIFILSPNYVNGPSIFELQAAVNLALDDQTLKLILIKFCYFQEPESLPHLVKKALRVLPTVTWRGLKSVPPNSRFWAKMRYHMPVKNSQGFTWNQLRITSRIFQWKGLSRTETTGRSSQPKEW

B1: C086 (SEQ ID NO: 30; E6K, V11I, C38A, K53A, T63A, C76A, C127A) (ligand)
chain: YFGKLKSKLSIIRNLNDQVLFIDQGNRPLFEDMTDSDARDNAPRTIFIISMYADSQPRGMAVAISVKCEKISTLSAENKIISFKEMNPPDNIKDTKSDIIFFQRSVPGHDNKMQFESSSYEGYFLAAEKERDLFKLILKKEDELGDRSIMFTVQNED
B2: C167 (V11I, C38A, C76A, S105I, C127A) (ligand)
chain: B1 chain with K6E, A53K, A63T, S105I
B3: C168 (V11I, C38A, C76A, S105K, C127A) (ligand)
chain: B1 chain with K6E, A53K, A63T, S105K
B4: C166 (V11I, C38A, S55T, C76A, C127A) (ligand)
chain: B1 chain with K6E, A53K, S55T, A63T
B5: IL-18 polypeptide SEQ ID NO: 34 (E06K, K53A, S55A) (ligand)
chain: B1 chain with I11V, A38C, S55A, A63T, A76C, A127C
B6: C127 (Propeptide-LinkerX-C086; SEQ ID NO: 69) (ligand)
chain: MAAEPVEDNCINFVAMKFIDNTLYFIAEDDENLESDSGGPGPAGMKGLPGSYFGKLKSKLSIIRNLNDQVLFIDQGNRPLFEDMTDSDARDNAPRTIFIISMYADSQPRGMAVAISVKCEKISTLSAENKIISFKEMNPPDNIKDTKSDIIFFQRSVPGHDNKMQFESSSYEGYFLAAEKERDLFKLILKKEDELGDRSIMFTVQNED
B7: C191 (C086-PLGLAG linker-IL-18Rα D3-His6; SEQ ID NO: 76) (ligand)
chain: YFGKLKSKLSIIRNLNDQVLFIDQGNRPLFEDMTDSDARDNAPRTIFIISMYADSQPRGMAVAISVKCEKISTLSAENKIISFKEMNPPDNIKDTKSDIIFFQRSVPGHDNKMQFESSSYEGYFLAAEKERDLFKLILKKEDELGDRSIMFTVQNESGGPLGLAGGSNIVPVLLGPKLNHVAVELGKNVRLNCSALLNEEDVIYWMFGEENGSDPNIHEEKEMRIMTPEGKWHASKVLRIENIGESNLNVLYNCTVASTGGTDTKSFILVRKADHHHHHH
B8: C136 (C086-GGSGG-IL-18Rα D3-His6, non-cleavable control; SEQ ID NO: 77) (ligand)
chain: YFGKLKSKLSIIRNLNDQVLFIDQGNRPLFEDMTDSDARDNAPRTIFIISMYADSQPRGMAVAISVKCEKISTLSAENKIISFKEMNPPDNIKDTKSDIIFFQRSVPGHDNKMQFESSSYEGYFLAAEKERDLFKLILKKEDELGDRSIMFTVQNEGGSGGSNIVPVLLGPKLNHVAVELGKNVRLNCSALLNEEDVIYWMFGEENGSDPNIHEEKEMRIMTPEGKWHASKVLRIENIGESNLNVLYNCTVASTGGTDTKSFILVRKADHHHHHH
B9: C137 (C086-GGGGSGGGGSGGGG-IL-18Rα D3-His6, non-cleavable control; SEQ ID NO: 78) (ligand)
chain: YFGKLKSKLSIIRNLNDQVLFIDQGNRPLFEDMTDSDARDNAPRTIFIISMYADSQPRGMAVAISVKCEKISTLSAENKIISFKEMNPPDNIKDTKSDIIFFQRSVPGHDNKMQFESSSYEGYFLAAEKERDLFKLILKKEDELGDRSIMFTVQNEGGGGSGGGGSGGGGSNIVPVLLGPKLNHVAVELGKNVRLNCSALLNEEDVIYWMFGEENGSDPNIHEEKEMRIMTPEGKWHASKVLRIENIGESNLNVLYNCTVASTGGTDTKSFILVRKADHHHHHH
B10: C172 (C086-LinkerX-IL-18Rα D3-His6; SEQ ID NO: 73) (ligand)
chain: B9 chain with G157S, G160P, S161G, G162P, G163A, G165M, S166K, G168L, G169P
B11: C190 (Propeptide-C086, non-cleavable control; SEQ ID NO: 68) (ligand)
chain: MAAEPVEDNCINFVAMKFIDNTLYFIAEDDENLESDYFGKLKSKLSIIRNLNDQVLFIDQGNRPLFEDMTDSDARDNAPRTIFIISMYADSQPRGMAVAISVKCEKISTLSAENKIISFKEMNPPDNIKDTKSDIIFFQRSVPGHDNKMQFESSSYEGYFLAAEKERDLFKLILKKEDELGDRSIMFTVQNED
B12: C190 + MMP9 (ligand)
chain: B11 chain
B13: C187 (Propeptide-PLGLAG-C086; SEQ ID NO: 72) (ligand)
chain: MAAEPVEDNCINFVAMKFIDNTLYFIAEDDENLESDPLGLAGYFGKLKSKLSIIRNLNDQVLFIDQGNRPLFEDMTDSDARDNAPRTIFIISMYADSQPRGMAVAISVKCEKISTLSAENKIISFKEMNPPDNIKDTKSDIIFFQRSVPGHDNKMQFESSSYEGYFLAAEKERDLFKLILKKEDELGDRSIMFTVQNED
B14: C189 (C086-LinkerX-IL-18Rα D3 without glycosylation sites-His6; SEQ ID NO: 75) (ligand)
chain: YFGKLKSKLSIIRNLNDQVLFIDQGNRPLFEDMTDSDARDNAPRTIFIISMYADSQPRGMAVAISVKCEKISTLSAENKIISFKEMNPPDNIKDTKSDIIFFQRSVPGHDNKMQFESSSYEGYFLAAEKERDLFKLILKKEDELGDRSIMFTVQNESGGPGPAGMKGLPGSNIVPVLLGPKLNHVAVELGKNVRLDCSALLNEEDVIYWMFGEEDGSDPNIHEEKEMRIMTPEGKWHASKVLRIENIGESNLNVLYDCTVASTGGTDTKSFILVRKADHHHHHH
B15: C185 (Propeptide-PLG-C086; SEQ ID NO: 70) (ligand)
chain: MAAEPVEDNCINFVAMKFIDNTLYFIAEDDENLESDPLGYFGKLKSKLSIIRNLNDQVLFIDQGNRPLFEDMTDSDARDNAPRTIFIISMYADSQPRGMAVAISVKCEKISTLSAENKIISFKEMNPPDNIKDTKSDIIFFQRSVPGHDNKMQFESSSYEGYFLAAEKERDLFKLILKKEDELGDRSIMFTVQNED

molecular target: T1, IL-18 receptor (IL-18Rαβ) on cells; assay: cell-based or functional assay

Binder	EC50 (read off the curve), HEK-Blue IL18R reporter [pM]
B1	~0.04

molecular target: T1, IL-18 receptor (IL-18Rαβ) on cells; assay: cell-based or functional assay; remark: another data set of the same source

Binder	EC50 (nM), IFNγ induction, NK-92 cells [nM]
B1	0.026
B2	0.098
B3	1.37
B4	0.103
B5	0.824

molecular target: T1, IL-18 receptor (IL-18Rαβ) on cells; assay: cell-based or functional assay; remark: another data set of the same source

Binder	Fold potency loss vs C086 [fold]	HEK-blue EC50 [nM]
B6	7000	295
B7	48	2.02
B8	21	0.884
B9	49	2.08
B10	26	1.09
B11		404
B12		198
B1		0.04
B13	29400	1240
B14	10	0.43
B15	60900	2560

molecular target: T1, IL-18 receptor (IL-18Rαβ) on cells; assay: cell-based or functional assay; remark: another data set of the same source

Binder	EC50 (read off the curve), HEK-Blue IL18R reporter [pM]
B7	~2
B10	~1
B1	~0.04
B14	~0.4

molecular target: T1, IL-18 receptor (IL-18Rαβ) on cells; assay: cell-based or functional assay; remark: another data set of the same source

Binder	EC50 (pM), HEK-Blue IL-18R reporter assay [pM]
B1	0.034
B2	5.37
B3	7.73
B4	4.73
B5	272
